Measured values as given in patent US8541373B2, “BChE albumin fusions for the treatment of cocaine abuse” (priority 2009, dated 2013).

Tested on: cocaine
Assay: Plasma cocaine, benzoylecgonine and ecgonine methyl ester (LC-MS) and cocaine PK after IV cocaine post-AlbuBChE
Assay type: in vivo, cynomolgus monkeys
Protocol: Blood was placed into K2EDTA blood collection tubes with esterase inhibitor diisopropylfluorophosphate (DFP). Tubes were inverted several times and placed on wet ice upon collection. Samples were centrifuged at 2-8° C. within 45 minutes of collection. The resultant plasma was recovered and a single 200 μL aliquot of plasma was placed into polypropylene tubes. Plasma samples were frozen over dry ice and stored at −75±15° C.
The following outline describes the LC-MS-based assay employed for the measurement of cocaine in plasma samples. Prior to MS analysis, plasma samples, calibration standards and controls were extracted using supported liquid extraction (SLE-ISOLUTE, Biotage). Twenty-five microliters of samples (25 μL) received 150 μl of 5% Ammonium hydroxide and 25 μl internal standard solution (Cocaine-d3). After mixing and transfer to SLE plate, samples were eluted with methylene chloride and evaporated to dryness. After resuspension in 50 μl of reconstitution solution—5% ACM in 10 mM ammonium acetate in water, 10 μl was injected onto Thermo Hypercarb column at 0.5 ml/min. Mobile phase was biphasic. Mass spectrophotometric detection was performed using Api 4000, APCI positive interface and Multiple Reaction Monitoring (MRM). Plasma concentrations of cocaine, benzoylecgonine and ecgonine methyl ester were determined using this assay.
When the data permits, pharmacokinetic parameter values for cocaine and its metabolites were determined using plasma concentration-times profiles for individual animals at all the study days of cocaine administration. […] Specifically the model for non-compartmental analysis with IV bolus input for cocaine and extravascular input for the metabolites.

[1] = 0.2 mg/kg IM, cocaine 1 mg/kg IV 120 hr post-AlbuBChE, 40 min after cocaine
[2] = 0.2 mg/kg IM, cocaine 1 mg/kg IV 120 hr post-AlbuBChE, 60 min after cocaine
[3] = 0.2 mg/kg IM, cocaine 1 mg/kg IV 240 hr post-AlbuBChE
[4] = 0.2 mg/kg IM, cocaine 1 mg/kg IV 240 hr post-AlbuBChE, 5 min after cocaine
[5] = 0.2 mg/kg IM, cocaine 1 mg/kg IV 240 hr post-AlbuBChE, 10 min after cocaine
[6] = 0.2 mg/kg IM, cocaine 1 mg/kg IV 240 hr post-AlbuBChE, 15 min after cocaine
[7] = 0.2 mg/kg IM, cocaine 1 mg/kg IV 240 hr post-AlbuBChE, 20 min after cocaine
[8] = 0.2 mg/kg IM, cocaine 1 mg/kg IV 240 hr post-AlbuBChE, 30 min after cocaine
[9] = 0.2 mg/kg IM, cocaine 1 mg/kg IV 240 hr post-AlbuBChE, 40 min after cocaine
[10] = 0.2 mg/kg IM, cocaine 1 mg/kg IV 240 hr post-AlbuBChE, 60 min after cocaine
[11] = 1 mg/kg IM, cocaine 1 mg/kg IV 2 hr post-AlbuBChE
[12] = 1 mg/kg IM, cocaine 1 mg/kg IV 2 hr post-AlbuBChE, 5 min after cocaine
[13] = 1 mg/kg IM, cocaine 1 mg/kg IV 2 hr post-AlbuBChE, 10 min after cocaine
[14] = 1 mg/kg IM, cocaine 1 mg/kg IV 2 hr post-AlbuBChE, 15 min after cocaine
[15] = 1 mg/kg IM, cocaine 1 mg/kg IV 2 hr post-AlbuBChE, 20 min after cocaine
[16] = 1 mg/kg IM, cocaine 1 mg/kg IV 2 hr post-AlbuBChE, 30 min after cocaine
[17] = 1 mg/kg IM, cocaine 1 mg/kg IV 2 hr post-AlbuBChE, 40 min after cocaine
[18] = 1 mg/kg IM, cocaine 1 mg/kg IV 2 hr post-AlbuBChE, 60 min after cocaine
[19] = 1 mg/kg IM, cocaine 1 mg/kg IV 48 hr post-AlbuBChE
[20] = 1 mg/kg IM, cocaine 1 mg/kg IV 48 hr post-AlbuBChE, 5 min after cocaine
[21] = 1 mg/kg IM, cocaine 1 mg/kg IV 48 hr post-AlbuBChE, 10 min after cocaine
[22] = 1 mg/kg IM, cocaine 1 mg/kg IV 48 hr post-AlbuBChE, 15 min after cocaine
[23] = 1 mg/kg IM, cocaine 1 mg/kg IV 48 hr post-AlbuBChE, 20 min after cocaine
[24] = 1 mg/kg IM, cocaine 1 mg/kg IV 48 hr post-AlbuBChE, 30 min after cocaine
[25] = 1 mg/kg IM, cocaine 1 mg/kg IV 48 hr post-AlbuBChE, 40 min after cocaine
[26] = 1 mg/kg IM, cocaine 1 mg/kg IV 48 hr post-AlbuBChE, 60 min after cocaine
[27] = 1 mg/kg IM, cocaine 1 mg/kg IV 96 hr post-AlbuBChE
[28] = 1 mg/kg IM, cocaine 1 mg/kg IV 96 hr post-AlbuBChE, 5 min after cocaine
[29] = 1 mg/kg IM, cocaine 1 mg/kg IV 96 hr post-AlbuBChE, 10 min after cocaine
[30] = 1 mg/kg IM, cocaine 1 mg/kg IV 96 hr post-AlbuBChE, 15 min after cocaine

AlbuBChE
Ecgonine methyl ester plasma concentration (mean) [1]: 98 ng/mL | Mean benzoylecgonine plasma concentration [1]: 61.4 ng/mL | Mean cocaine plasma concentration [1]: 141 ng/mL | Ecgonine methyl ester plasma concentration (mean) [2]: 82.9 ng/mL | Mean benzoylecgonine plasma concentration [2]: 66.2 ng/mL | Mean cocaine plasma concentration [2]: 64.7 ng/mL | Mean benzoylecgonine AUC(0-t) [3]: 4089 ng·min/mL | Mean cocaine AUC % Extrap [3]: 21.6% | Mean cocaine AUC(0-t) [3]: 13693 ng·min/mL | Mean cocaine AUC(0-∞) [3]: 17650 ng·min/mL | Mean cocaine C0 [3]: 549 ng/mL | Mean cocaine CI [3]: 57.4 mL/min/kg | Mean cocaine Vss [3]: 2.181 L/kg | Mean cocaine t½ [3]: 29.2 min | Ecgonine methyl ester plasma concentration (mean) [4]: 20.1 ng/mL | Mean benzoylecgonine plasma concentration [4]: 53.5 ng/mL | Mean cocaine plasma concentration [4]: 453 ng/mL | Ecgonine methyl ester plasma concentration (mean) [5]: 23.1 ng/mL | Mean benzoylecgonine plasma concentration [5]: 53.3 ng/mL | Mean cocaine plasma concentration [5]: 379 ng/mL | Ecgonine methyl ester plasma concentration (mean) [6]: 25.1 ng/mL | Mean benzoylecgonine plasma concentration [6]: 62.9 ng/mL | Mean cocaine plasma concentration [6]: 297 ng/mL | Ecgonine methyl ester plasma concentration (mean) [7]: 28.3 ng/mL | Mean benzoylecgonine plasma concentration [7]: 63.7 ng/mL | Mean cocaine plasma concentration [7]: 254 ng/mL | Ecgonine methyl ester plasma concentration (mean) [8]: 33.9 ng/mL | Mean benzoylecgonine plasma concentration [8]: 69.8 ng/mL | Mean cocaine plasma concentration [8]: 189 ng/mL | Ecgonine methyl ester plasma concentration (mean) [9]: 38.8 ng/mL | Mean benzoylecgonine plasma concentration [9]: 74.5 ng/mL | Mean cocaine plasma concentration [9]: 133 ng/mL | Ecgonine methyl ester plasma concentration (mean) [10]: 41.4 ng/mL | Mean benzoylecgonine plasma concentration [10]: 80.9 ng/mL | Mean cocaine plasma concentration [10]: 89.5 ng/mL | Mean benzoylecgonine AUC(0-t) [11]: 1960 ng·min/mL | Mean cocaine AUC(0-t) [11]: 7880 ng·min/mL | Mean cocaine C0 [11]: 422 ng/mL | Ecgonine methyl ester plasma concentration (mean) [12]: 235 ng/mL | Mean benzoylecgonine plasma concentration [12]: 30.1 ng/mL | Mean cocaine plasma concentration [12]: 308 ng/mL | Ecgonine methyl ester plasma concentration (mean) [13]: 227 ng/mL | Mean benzoylecgonine plasma concentration [13]: 33.2 ng/mL | Mean cocaine plasma concentration [13]: 235 ng/mL | Ecgonine methyl ester plasma concentration (mean) [14]: 276 ng/mL | Mean benzoylecgonine plasma concentration [14]: 32.5 ng/mL | Mean cocaine plasma concentration [14]: 179 ng/mL | Ecgonine methyl ester plasma concentration (mean) [15]: 301 ng/mL | Mean benzoylecgonine plasma concentration [15]: 32.5 ng/mL | Mean cocaine plasma concentration [15]: 73.7 ng/mL | Ecgonine methyl ester plasma concentration (mean) [16]: 291 ng/mL | Mean benzoylecgonine plasma concentration [16]: 28.9 ng/mL | Mean cocaine plasma concentration [16]: 102 ng/mL | Ecgonine methyl ester plasma concentration (mean) [17]: 202 ng/mL | Mean benzoylecgonine plasma concentration [17]: 38.4 ng/mL | Mean cocaine plasma concentration [17]: 96.9 ng/mL | Ecgonine methyl ester plasma concentration (mean) [18]: 189 ng/mL | Mean benzoylecgonine plasma concentration [18]: 29.6 ng/mL | Mean cocaine plasma concentration [18]: 19.7 ng/mL | Mean benzoylecgonine AUC(0-t) [19]: 1668 ng·min/mL | Mean cocaine AUC % Extrap [19]: 11.9% | Mean cocaine AUC(0-t) [19]: 5965 ng·min/mL | Mean cocaine AUC(0-∞) [19]: 6764 ng·min/mL | Mean cocaine C0 [19]: 226 ng/mL | Mean cocaine CI [19]: 150 mL/min/kg | Mean cocaine Vss [19]: 4.304 L/kg | Mean cocaine t½ [19]: 19.0 min | Ecgonine methyl ester plasma concentration (mean) [20]: 201 ng/mL | Mean benzoylecgonine plasma concentration [20]: 24.0 ng/mL | Mean cocaine plasma concentration [20]: 176 ng/mL | Ecgonine methyl ester plasma concentration (mean) [21]: 32.2 ng/mL | Mean benzoylecgonine plasma concentration [21]: 23.7 ng/mL | Mean cocaine plasma concentration [21]: 140 ng/mL | Ecgonine methyl ester plasma concentration (mean) [22]: 48.2 ng/mL | Mean benzoylecgonine plasma concentration [22]: 24.9 ng/mL | Mean cocaine plasma concentration [22]: 152 ng/mL | Ecgonine methyl ester plasma concentration (mean) [23]: 56.2 ng/mL | Mean benzoylecgonine plasma concentration [23]: 26.7 ng/mL | Mean cocaine plasma concentration [23]: 128 ng/mL | Ecgonine methyl ester plasma concentration (mean) [24]: 63.8 ng/mL | Mean benzoylecgonine plasma concentration [24]: 29.8 ng/mL | Mean cocaine plasma concentration [24]: 87.0 ng/mL | Ecgonine methyl ester plasma concentration (mean) [25]: 64.9 ng/mL | Mean benzoylecgonine plasma concentration [25]: 29.6 ng/mL | Mean cocaine plasma concentration [25]: 62.3 ng/mL | Ecgonine methyl ester plasma concentration (mean) [26]: 57.3 ng/mL | Mean benzoylecgonine plasma concentration [26]: 29.8 ng/mL | Mean cocaine plasma concentration [26]: 29.1 ng/mL | Mean benzoylecgonine AUC(0-t) [27]: 2741 ng·min/mL | Mean cocaine AUC % Extrap [27]: 18.4% | Mean cocaine AUC(0-t) [27]: 10044 ng·min/mL | Mean cocaine AUC(0-∞) [27]: 12313 ng·min/mL | Mean cocaine C0 [27]: 288 ng/mL | Mean cocaine CI [27]: 81.6 mL/min/kg | Mean cocaine Vss [27]: 2.94 L/kg | Mean cocaine t½ [27]: 23.9 min | Ecgonine methyl ester plasma concentration (mean) [28]: 138 ng/mL | Mean benzoylecgonine plasma concentration [28]: 43.9 ng/mL | Mean cocaine plasma concentration [28]: 265 ng/mL | Ecgonine methyl ester plasma concentration (mean) [29]: 39.8 ng/mL | Mean benzoylecgonine plasma concentration [29]: 41.2 ng/mL | Mean cocaine plasma concentration [29]: 245 ng/mL | Ecgonine methyl ester plasma concentration (mean) [30]: 42.9 ng/mL | Mean benzoylecgonine plasma concentration [30]: 40.0 ng/mL | Mean cocaine plasma concentration [30]: 218 ng/mL
